{"source": "patent US6361998B1", "about": "“Efficient culture of stem cells for the production of hemoglobin” (Hemosol Inc., priority 1999, dated 2002)", "key": {"[1]": {"test_system": "erythroid-cultured CD34^+lin^- cells", "experiment": "Methylcellulose colony-forming assay two to three days after transfection of cultured erythroid cells", "type": "cell-based, human", "details": "for # of erythroid colonies in EpoR(t439; R154C) transfected samples: BFU-E and CFU-E; for increase in erythroid colonies: versus untransfected or mock transfected control", "method": "CD34^+lin^− cells cultured for 7 to 10 days in EPSFM+LDL were washed in EB and subjected to electroporation in the presence of EpoR(t439; R154C)/pcDNA3.1 expression vector as described in Example 3. Two to three days post-transfection, aliquots of untransfected and EpoR(t439; R154C)/pcDNA3.1 transfected cells were counted for viability by trypan-blue dye exclusion and methylcellose colony-forming assays were performed in IMDM, 1% methylcellulose, 30% FBS, 1% BSA, 10^−4 M β mercaptoethanol, and […] glutamine, IL-3 (10 ng/ml), SCF (50 ng/ml) and EPO (2 U/ml)."}, "[2]": {"test_system": "erythroid-cultured CD34^+lin^- cells", "experiment": "Methylcellulose colony-forming assay after 14 days liquid culture in G418", "type": "cell-based, human", "details": "after 14 days liquid culture with 500 ug/ml G418", "method": "Cells transfected with either EpoR(t439; R154C)/pcDNA3.1 or the pcDNA3.1 vector alone were placed in liquid culture (IMDM, 1% BSA, 10 ng/ml rhIL-3, 50 ng/ml SCF and 2 U/ml EPO) in the presence of 500 ug/ml G418 for 14 days. At this time, cells were counted for viability by trypan-blue dye exclusion and methylcellose colony-forming assays were performed in IMDM, 1% methylcellulose, 30% FBS, 1% BSA, 10^−4 M β mercaptoethanol, and […] glutamine, IL-3 (10 ng/ml), SCF (50 ng/ml), EPO (2 U/ml) and 500 ug/ml G418. […] No colonies were detected in the untransfected or “mock” transfected controls. Thus, expression of the EpoR(t439; R154C)/pcDNA3.1 plasmid not only conferred G418 resistance but increased the number of erythroid progenitors detectable after 14 days of liquid culture."}, "BaF3 cells": {"test_system": "BaF3 cells", "experiment": "Cytokine-dependency growth of BaF3 cells transfected with human EpoR constructs", "type": "cell-based, murine", "details": "for growth of BaF3 transfectants: no exogenous IL-3", "method": "The functionality of the EpoR(t439; R154C) was tested and compared to the wild-type EpoR (wtEpoR) and EpoR(t439) using the BaF3 cell line. The cDNAs encoding these three different EpoRs were subcloned into the pcDNA3.1 expression vector, which provides high-level constitutive expression of proteins in mammalian cells and also contains the neomycin gene for the selection of stable transfectant with G418. The vector constructs were electroporated into BaF3 cells and stable transfectants were isolated in the presence of 600 ug/ml G418. BaF3 transfectants were maintained in RPMI-1640 with 10% FBS and 5% WEHI conditioned medium (a source of murine IL-3), except during the cytokine-dependency studies when cells were maintained in RPMI-1640 plus 10% FBS, along with the indicated cytokines. Growth of the different EpoR transfectants in the presence of either murine IL-3 or two different doses of Epo was compared to that of the parental (non-transfected) BaF3 cells (FIG. 7). […] All three EpoR constructs encode functional receptors that allow expansion of the BaF3 cells in the presence of Epo without exogenous IL-3."}}}
{"molecule": "EpoR(t439; R154C): human EpoR truncated at amino acid 439 with R154C point mutation; constitutively active (SEQ ID NOS 6 and 7) (protein, listed as Homo sapiens) MDHLGASLWPQVGSLCLLLAGAAWAPPPNLPDPKFESKAALLAARGPEELLCFTERLEDLVCFWEEAASAGVGPGNYSFSYQLEDEPWKLCRLHQAPTARGAVRFWCSLPTADTSSFVPLELRVTAASGAPRYHRVIHINEVVLLDAPVGLVACLADESGHVVLRWLPPPETPMTSHIRYEVDVSAGNGAGSVQRVEILEGRTECVLSNLRGRTRYTFAVRARMAEPSFGGFWSAWSEPVSLLTPSDLDPLILTLSLILVVILVLLTVLALLSHRRALKQKIWPGIPSPESEFEGLFTTHKGNFQLWLYQNDGCLWWSPCTPFTEDPPASLEVLSERCWGTMQAVEPGTDDEGPLLEPVGSEHAQDTYLVLDKWLLPRNPPSEDLPGPGGSVDIVAMDEGSEASSCSSALASKPSPEGASAASFEYTILDPSSQLLRP", "values": [{"measurement": "# of erythroid colonies in EpoR(t439; R154C) transfected samples", "setting": "[1]; Experiment # 1", "value": 428}, {"measurement": "increase in erythroid colonies", "setting": "[1]; Experiment # 1", "value": "+388"}, {"measurement": "# of erythroid colonies in EpoR(t439; R154C) transfected samples", "setting": "[1]; Experiment # 2", "value": 522}, {"measurement": "increase in erythroid colonies", "setting": "[1]; Experiment # 2", "value": "+98"}, {"measurement": "# of erythroid colonies in EpoR(t439; R154C) transfected samples", "setting": "[1]; Experiment # 3", "value": 66}, {"measurement": "increase in erythroid colonies", "setting": "[1]; Experiment # 3", "value": "+66"}, {"measurement": "erythroid colonies compared to pcDNA3.1 vector alone", "setting": "[2]", "value": "More erythroid colonies"}, {"measurement": "growth of BaF3 transfectants", "setting": "BaF3 cells; 0.02 U/ml Epo", "value": "grew in the presence of either 0.02 or 2 U/ml Epo but less than in the presence of IL-3"}, {"measurement": "growth of BaF3 transfectants", "setting": "BaF3 cells; 2 U/ml Epo", "value": "grew in the presence of either 0.02 or 2 U/ml Epo but less than in the presence of IL-3"}, {"measurement": "expansion of BaF3 cells", "setting": "BaF3 cells; absence of exogenous cytokines", "value": "supported expansion"}, {"measurement": "functionality of the EpoR", "setting": "BaF3 cells; conclusion from BaF3 growth", "value": "constitutively active form of the EpoR"}]}
